These results are taken from paper PMC3870252, “The N-Terminal Membrane-Spanning Domain of the Escherichia coli DNA Translocase FtsK Hexamerizes at Midcell” (mBio, 2013).

The target in data set [1] is TtFtsKN (purified N-terminal domain of FtsK from Thermoanaerobacter tengcongensis) (Thermoanaerobacter tengcongensis). Briefly: SEC-MALS; Superdex S-200 column, in DDM detergent; masses after subtraction of the micelle contribution; hexamer and monomer peaks. On the technique in general: SEC sorts molecules by how far they enter the pores of the column.
Data set [2] has the same target. As to the kind of experiment: oligomer bands on SDS-PAGE of SEC fractions; fractions of the Superdex S-200 second purification step at a lower DDM detergent concentration, 12% Coomassie blue-stained SDS-PAGE.
Data set [3] has as its target EcFtsKN (purified N-terminal domain of FtsK from E. coli) (E. coli). The description is as above.
Data set [4] deals with the molecule itself. Briefly: quantitative live-cell fluorescence stoichiometry (widefield microscopy); live E. coli in minimal glycerol medium; integrated midcell fluorescence divided by the intensity of a single YPet fluorophore; periodicity from the power spectrum of measured stoichiometries.

Several values for one entry are separate records, joined by “and”; a condition that tells them apart may be missing. Equal entries are not always repeated.

As a reminder, the stoichiometry N is a count of units in the complex or per binding partner. Regarding “TtFtsKN (purified N-terminal domain of FtsK from Thermoanaerobacter tengcongensis) (domain or fragment)”, the stoichiometry N is 6 in data set [1]; 2 and 6 in data set [2].

For “EcFtsKN (purified N-terminal domain of FtsK from E. coli) (domain or fragment)”, the stoichiometry N in data set [3] was 2 and 6.

B1: FtsKΔC-YPet (FtsK derivative lacking the C-terminal domain, amino acids 1 to 818) (domain or fragment, E. coli, UniProt P46889 1-818, looked up)
chain: MSQEYIEDKEVTLTKLSSGRRLLEALLILIVLFAVWLMAALLSFNPSDPSWSQTAWHEPIHNLGGMPGAWLADTLFFIFGVMAYTIPVIIVGGCWFAWRHQSSDEYIDYFAVSLRIIGVLALILTSCGLAAINADDIWYFASGGVIGSLLSTTLQPLLHSSGGTIALLCVWAAGLTLFTGWSWVTIAEKLGGWILNILTFASNRTRRDDTWVDEDEYEDDEEYEDENHGKQHESRRARILRGALARRKRLAEKFINPMGRQTDAALFSGKRMDDDEEITYTARGVAADPDDVLFSGNRATQPEYDEYDPLLNGAPITEPVAVAAAATTATQSWAAPVEPVTQTPPVASVDVPPAQPTVAWQPVPGPQTGEPVIAPAPEGYPQQSQYAQPAVQYNEPLQQPVQPQQPYYAPAAEQPAQQPYYAPAPEQPVAGNAWQAEEQQSTFAPQSTYQTEQTYQQPAAQEPLYQQPQPVEQQPVVEPEPVVEETKPARPPLYYFEEVEEKRAREREQLAAWYQPIPEPVKEPEPIKSSLKAPSVAAVPPVEAAAAVSPLASGVKKATLATGAAATVAAPVFSLANSGGPRPQVKEGIGPQLPRPKRIRVPTRRELASYGIKLPSQRAAEEKAREAQRNQYDSGDQYNDDEIDAMQQDELARQFAQTQQQRYGEQYQHDVPVNAEDADAAAEAELARQFAQTQQQRYSGEQPAGANPFSLDDFEFSPMKALLDDGPHEPLFTPIVEPVQQPQQPVAPQQQYQQPQQPVPPQPQYQQPQQPVAPQPQYQQPQQPVAPQQQYQQPQQPVAPQQQYQQPQQPVAPQPQDT
notes: FtsK, Escherichia coli, amino acids 1 to 818 (lacks the C-terminal translocase domain); source: expressed from the endogenous chromosomal locus, E. coli K-12 AB1157 derivative, in live cells; not shown: YPet, C-terminal, kept
With B1, the “stoichiometry N” value in data set [4] turned out to be 6.05.

B2: FtsKN-YPet (N-terminal domain of E. coli FtsK, amino acids 1 to 210) (domain or fragment, UniProt P46889 1-210, looked up)
chain: MSQEYIEDKEVTLTKLSSGRRLLEALLILIVLFAVWLMAALLSFNPSDPSWSQTAWHEPIHNLGGMPGAWLADTLFFIFGVMAYTIPVIIVGGCWFAWRHQSSDEYIDYFAVSLRIIGVLALILTSCGLAAINADDIWYFASGGVIGSLLSTTLQPLLHSSGGTIALLCVWAAGLTLFTGWSWVTIAEKLGGWILNILTFASNRTRRDDT
notes: FtsK, Escherichia coli, N-terminal membrane-spanning domain, amino acids 1 to 210; source: expressed from the endogenous chromosomal locus, E. coli K-12 AB1157 derivative, in live cells; not shown: YPet, C-terminal, kept
B2: the “stoichiometry N” value in data set [4] was 6.

B3: FtsK-YPet (wild-type E. coli FtsK with a C-terminal YPet fusion) (natural protein, UniProt P46889 1-1329, looked up)
chain: MSQEYIEDKEVTLTKLSSGRRLLEALLILIVLFAVWLMAALLSFNPSDPSWSQTAWHEPIHNLGGMPGAWLADTLFFIFGVMAYTIPVIIVGGCWFAWRHQSSDEYIDYFAVSLRIIGVLALILTSCGLAAINADDIWYFASGGVIGSLLSTTLQPLLHSSGGTIALLCVWAAGLTLFTGWSWVTIAEKLGGWILNILTFASNRTRRDDTWVDEDEYEDDEEYEDENHGKQHESRRARILRGALARRKRLAEKFINPMGRQTDAALFSGKRMDDDEEITYTARGVAADPDDVLFSGNRATQPEYDEYDPLLNGAPITEPVAVAAAATTATQSWAAPVEPVTQTPPVASVDVPPAQPTVAWQPVPGPQTGEPVIAPAPEGYPQQSQYAQPAVQYNEPLQQPVQPQQPYYAPAAEQPAQQPYYAPAPEQPVAGNAWQAEEQQSTFAPQSTYQTEQTYQQPAAQEPLYQQPQPVEQQPVVEPEPVVEETKPARPPLYYFEEVEEKRAREREQLAAWYQPIPEPVKEPEPIKSSLKAPSVAAVPPVEAAAAVSPLASGVKKATLATGAAATVAAPVFSLANSGGPRPQVKEGIGPQLPRPKRIRVPTRRELASYGIKLPSQRAAEEKAREAQRNQYDSGDQYNDDEIDAMQQDELARQFAQTQQQRYGEQYQHDVPVNAEDADAAAEAELARQFAQTQQQRYSGEQPAGANPFSLDDFEFSPMKALLDDGPHEPLFTPIVEPVQQPQQPVAPQQQYQQPQQPVPPQPQYQQPQQPVAPQPQYQQPQQPVAPQQQYQQPQQPVAPQQQYQQPQQPVAPQPQDTLLHPLLMRNGDSRPLHKPTTPLPSLDLLTPPPSEVEPVDTFALEQMARLVEARLADFRIKADVVNYSPGPVITRFELNLAPGVKAARISNLSRDLARSLSTVAVRVVEVIPGKPYVGLELPNKKRQTVYLREVLDNAKFRDNPSPLTVVLGKDIAGEPVVADLAKMPHLLVAGTTGSGKSVGVNAMILSMLYKAQPEDVRFIMIDPKMLELSVYEGIPHLLTEVVTDMKDAANALRWCVNEMERRYKLMSALGVRNLAGYNEKIAEADRMMRPIPDPYWKPGDSMDAQHPVLKKEPYIVVLVDEFADLMMTVGKKVEELIARLAQKARAAGIHLVLATQRPSVDVITGLIKANIPTRIAFTVSSKIDSRTILDQAGAESLLGMGDMLYSGPNSTLPVRVHGAFVRDQEVHAVVQDWKARGRPQYVDGITSDSESEGGAGGFDGAEELDPLFDQAVQFVTEKRKASISGVQRQFRIGYNRAARIIEQMEAQGIVSEQGHNGNREVLAPPPFD
notes: FtsK, DNA translocase, Escherichia coli; wild-type protein, 1,329 amino acids, integral membrane protein; also called wild-type FtsK; source: expressed from the endogenous wild-type chromosomal locus, E. coli K-12 AB1157 derivative, in live cells; not shown: YPet, C-terminal, kept
Regarding B3, in data set [4], the “stoichiometry N” value came to 6.12.
